tested on: Escherichia coli TOP10; assay: shrunken log2 fold change of peptide-encoding DNA abundance (4.5 h post-induction vs induction); higher = less antimicrobial activity (less host growth inhibition); conditions: time post-induction: 4.5 h; library: site-saturation at positions 5, 18, 19, 20
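Further: peptides expressed intracellularly from a pBAD plasmid library in pooled LB shake-flask culture, induced with 0.3% L-arabinose, DNA abundance read by NGS, three biological replicates, DESeq2 with apeglm shrinkage.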

| Sequence | shrunken log2 fold change |
| --- | --- |
| RRIRFRPPRLPRPRPRPATEPRP | 0.0616 |
| RRIRTRPPRLPRPRPRPRWDPRP | 0.0818 |
| RRIRFRPPRLPRPRPRPFRRPRP | -0.0629 |
| RRIRIRPPRLPRPRPRPGQPPRP | 0.0462 |
| RRIRCRPPRLPRPRPRPLVEPRP | 0.102 |
| RRIRIRPPRLPRPRPRPEMCPRP | 0.0321 |
| RRIRLRPPRLPRPRPRPHVEPRP | 0.522 |
| RRIRARPPRLPRPRPRPWAEPRP | 0.264 |
| RRIRKRPPRLPRPRPRPGAYPRP | 0.0945 |
| RRIRGRPPRLPRPRPRPMCVPRP | 0.723 |
| RRIRHRPPRLPRPRPRPRFWPRP | 0.112 |
| RRIRVRPPRLPRPRPRPVESPRP | -0.0208 |
| RRIRHRPPRLPRPRPRPVHSPRP | 0.0246 |
| RRIRMRPPRLPRPRPRPYHKPRP | -0.0503 |
| RRIRERPPRLPRPRPRPMCIPRP | -0.133 |
| RRIRTRPPRLPRPRPRPNHVPRP | -0.0538 |
| RRIRCRPPRLPRPRPRPNRLPRP | -0.00311 |
| RRIRRRPPRLPRPRPRPKSPPRP | 0.189 |
| RRIRWRPPRLPRPRPRPSAFPRP | 0.0981 |
| RRIRKRPPRLPRPRPRPPFSPRP | -0.227 |
| RRIRHRPPRLPRPRPRPFFYPRP | -0.4 |
| RRIRTRPPRLPRPRPRPDFKPRP | -0.172 |
| RRIRTRPPRLPRPRPRPWGCPRP | -0.151 |
| RRIRLRPPRLPRPRPRPRCNPRP | -0.534 |
| RRIRTRPPRLPRPRPRPDQGPRP | 0.23 |

| Sequence | shrunken log2 fold change |
| --- | --- |
| RRIRVRPPRLPRPRPRPGFYPRP | -0.345 |
| RRIRDRPPRLPRPRPRPGKIPRP | -0.176 |
| RRIRYRPPRLPRPRPRPPMSPRP | -0.612 |
| RRIRMRPPRLPRPRPRPKFMPRP | 0.0431 |
| RRIRDRPPRLPRPRPRPLGRPRP | 0.0897 |
| RRIRLRPPRLPRPRPRPDVVPRP | 0.0387 |
| RRIRPRPPRLPRPRPRPPVTPRP | 0.147 |
| RRIRARPPRLPRPRPRPWGKPRP | 0.0748 |
| RRIRFRPPRLPRPRPRPLWAPRP | -0.151 |
| RRIRQRPPRLPRPRPRPVKKPRP | -0.0152 |
| RRIRGRPPRLPRPRPRPADQPRP | 0.887 |
| RRIRTRPPRLPRPRPRPNDLPRP | -0.354 |
| RRIRQRPPRLPRPRPRPRPTPRP | 0.554 |
| RRIRRRPPRLPRPRPRPKRWPRP | 0.409 |
| RRIRVRPPRLPRPRPRPLVLPRP | -0.122 |
| RRIRMRPPRLPRPRPRPYPCPRP | 0.0288 |
| RRIRNRPPRLPRPRPRPPSHPRP | -0.301 |
| RRIRWRPPRLPRPRPRPESCPRP | 0.261 |
| RRIRARPPRLPRPRPRPGHFPRP | 0.0329 |
| RRIRRRPPRLPRPRPRPCYGPRP | -0.214 |
| RRIRARPPRLPRPRPRPLYDPRP | -0.124 |
| RRIRYRPPRLPRPRPRPDCYPRP | -3.15 |
| RRIRFRPPRLPRPRPRPISYPRP | -0.778 |
| RRIRSRPPRLPRPRPRPFHFPRP | -0.308 |
| RRIRTRPPRLPRPRPRPPMAPRP | 0.176 |

| Sequence | shrunken log2 fold change |
| --- | --- |
| RRIRQRPPRLPRPRPRPLFYPRP | -0.251 |
| RRIRIRPPRLPRPRPRPCVRPRP | -0.208 |
| RRIRMRPPRLPRPRPRPTMSPRP | -0.148 |
| RRIRLRPPRLPRPRPRPYPCPRP | 0.0537 |
| RRIRHRPPRLPRPRPRPNACPRP | -0.0122 |
| RRIRPRPPRLPRPRPRPYLCPRP | -0.504 |
| RRIRRRPPRLPRPRPRPYTQPRP | -0.141 |
| RRIRFRPPRLPRPRPRPNLNPRP | -0.504 |
| RRIRERPPRLPRPRPRPNKHPRP | -0.575 |
| RRIRGRPPRLPRPRPRPHCHPRP | 0.284 |
| RRIRPRPPRLPRPRPRPWASPRP | 0.0361 |
| RRIRPRPPRLPRPRPRPCCFPRP | -0.133 |
| RRIRPRPPRLPRPRPRPSATPRP | 0.195 |
| RRIRDRPPRLPRPRPRPPLCPRP | 0.223 |
| RRIRGRPPRLPRPRPRPDNMPRP | -0.185 |
| RRIRHRPPRLPRPRPRPENNPRP | -0.304 |
| RRIRTRPPRLPRPRPRPHWVPRP | 0.381 |
| RRIRSRPPRLPRPRPRPPWWPRP | 0.828 |
| RRIRSRPPRLPRPRPRPWAIPRP | -0.191 |
| RRIRIRPPRLPRPRPRPWCTPRP | -0.757 |
| RRIRSRPPRLPRPRPRPSWQPRP | -0.227 |
| RRIRSRPPRLPRPRPRPFLQPRP | -0.267 |
| RRIRKRPPRLPRPRPRPEETPRP | 2.19 |
| RRIRYRPPRLPRPRPRPLRWPRP | 0.184 |
| RRIRDRPPRLPRPRPRPCLTPRP | 0.0157 |
